According to patent US20240262894A1 (INSTITUTE OF MICROBIOLOGY CHINESE ACADEMY OF SCIENCES, published 2024):

B1: Palivizumab (antibody, V domains shown)
VH: QVTLRESGPALVKPTQTLTLTCTFSGFSLSTSGMSVGWIRQPPGKALEWLADIWWDDKKDYNPSLKSRLTISKDTSKNQVVLKVTNMDPADTATYYCARSMITNWYFDVWGAGTTVTVSS
VL: DIQMTQSPSTLSASVGDRVTITCKCQLSVGYMHWYQQKPGKAPKLLIYDTSKLASGVPSRFSGSGSGTEFTLTISSLQPDDFATYYCFQGSGYPFTFGGGTKLEIK
B2: RV10 Fab (Fab, V domains shown)
VH: QVQLVQSGAEVKKPGASVKVSCKASGYTFTTYDFHWVRQAPGQGLEWIGWLNPDNGNTKHSQKFQGRVTFTRDTSASTAFMELSSLRSEDTAVYYCTRAPWWWYFDYWGQGTLVTVSS
VL: NFMLTQPHSVSESPGKTVTISCTRSSGSIASNYVQWCQQRPGSSPTTVIYEDNQRPSGVPDRFSGSIDSSSNSASLTISGLRTEDEADYYCQSYDTSNAVFGGGTKLTVLG
notes: Fab made by enzyme digestion of the human IgG1/lambda antibody; also called Fab of RV10 antibody; not shown: limits not st
B3: RV7 Fab (Fab, V domains shown)
VH: QVQLQESGPGLVKPSETLSLTCTVSGGSISSYYLSWIRQPPGKGLEWIGYIYHTGSTNYNPSLKSRVTISVHSSKNQFSLKLTSVTAADTAVYYCARHMRIVTTIDYWGQGTLVTVSS
VL: DIVMTQSPSSLSASVGDRVTLTCRASQGISSYLAWYQQKPGKVPKLLIYAASTLQSGVPSRFSGSGSGTDFTLTISSLQPEDVATYYCQKYNSAPWTFGQGTKVEIKR
notes: Fab made by enzyme digestion (immobilised enzyme beads, Thermo 20341) of the human IgG1/kappa antibody; also called Fab of RV7 antibody; not shown: limits not st
B4: RV8 antibody (human IgG1) (antibody, V domains shown)
VH: QVQLVQSGGGVVQPGRSLRLSCAASGFTFSSYAMHWVRQAPGKGLEWMAVISYDGSNTYYADSVKGRFTISRDNSKNTLYLQMNSLRAEDTAMFYCARDYCSRGTCYHDYWGQGTLVTVSS
VL: DIVLTQSPSSLSASVGDRVTITCRASQDIRNDLSWYQQKPGKAPKLLIYAASSLQSGVPSRFSGSGSGTDFTLTISSLQPEDFATYSCLQDYNYPQTFGQGTKVEIKR
B5: RV8 Fab (Fab, V domains shown)
VH: B4 VH
VL: B4 VL
notes: Fab made by enzyme digestion of the human IgG1/kappa antibody; also called Fab of RV8 antibody; not shown: limits not st
B6: RV11 antibody (human IgG1) (antibody, V domains shown)
VH: QVQLVQSGGGVVQPGRSLRLSCAASGFSFTNYGMHWVRQAPGKGLEWVAVISYDDGSDKYYADSVKGRFTISRDNSKNTLYLQMNSLRAEDTAVYYCVRDPTGDYGDFPEQDGYYYYYGMDVWGQGTTVTVSS
VL: QAVLTQPPSASGTPGQRVTISCSGSSLNIGSNYVYWYQQLPGTAPKFLIYKNNQRPSGVPDRFSGSKSGTSASLAISGLRSEDEADYYCAAWDDSLSGVVFGGGTKLTVLG

Legend:
[1] = molecular target: F protein of RSV A-type Long strain (on virus) (respiratory syncytial virus A-type Long …, UniProt P12568 26-574); assay: cell-based or functional assay
[2] = molecular target: F protein of RSV A-type A2 strain (on virus) (respiratory syncytial virus A-type A2 …, UniProt P03420 26-574); assay: cell-based or functional assay
[3] = molecular target: T1, pre-fusion F protein DS-Cav1 of RSV A2 strain (respiratory syncytial virus A2 strain); assay: SPR (Biacore), F protein immobilised on CM5 chip, Fab as analyte
T1 construct: Purified from 293T cells; also called RSV-F (DS-Cav1); RSV pre-fusion F protein

[4] = molecular target: T2, post-fusion F protein (FΔFP) of RSV A2 strain (respiratory syncytial virus A2 strain, UniProt P03420 26-513); assay: as above
T2 construct: also called RSV-FΔFP; RSV post-fusion F protein

[5] = molecular target: T3, F protein of RSV B-type clinical isolates (on virus) (respiratory syncytial virus B-type …); assay: cell-based or functional assay
[6] = molecular target: T4, F protein of RSV A-type A2 strain (on virus) (respiratory syncytial virus A-type A2 …, UniProt P03420 26-574); assay: cell-based or functional assay; remark: listed apart in the source
[7] = molecular target: T3, F protein of RSV B-type clinical …; assay: cell-based or functional assay; remark: listed apart in the source
[8] = molecular target: T4, F protein of RSV A-type A2 strain (on …); assay: cell-based or functional assay; remark: listed apart in the source
[9] = molecular target: F protein of RSV A-type Long strain (on virus) (respiratory syncytial virus A-type Long …, UniProt P12568 26-574); assay: cell-based or functional assay; remark: listed apart in the source

Binder | Kd [3] | Kd [4] | IC50 (ng/mL), neutralization of RSV B-type clinical isolates on Hep2 cells, flow cytometry [5] | IC50 (ng/mL), neutralization of RSV A-type A2 strain on Hep2 cells, flow cytometry [6] | neutralization activity against RSV B-type clinical isolates relative to palivizumab [7] | further results
B1 | – | – | – | – | – | IC50 (ng/mL), neutralization of RSV A-type Long strain on Hep2 cells, flow cytometry [1]: 897 ng/mL; IC50 (ng/mL), neutralization of RSV A-type A2 strain on Hep2 cells, flow cytometry [2]: 751 ng/mL
B2 | 10.1 nM | 7.1 nM | – | – | – | –
B3 | – | – | – | – | – | binding result [3]: no binding; binding result [4]: no binding
B4 | – | – | 183 ng/mL | 540 ng/mL | 7.7 times | –
B5 | 25.6 nM | 17.5 nM | – | – | – | –
B6 | – | – | 31.4 ng/mL | 42.3 ng/mL | ~45 times | neutralization activity against RSV A2 relative to palivizumab [8]: ~18 times; neutralization activity against RSV Long relative to palivizumab [9]: ~16 times
